Measurements from publication PMC6768434.

B1: MnmC (Escherichia coli K-12) (protein)
chain: MKHYSIQPANLEFNAEGTPVSRDFDDVYFSNDNGLEETRYVFLGGNQLEVRFPEHPHPLFVVAESGFGTGLNFLTLWQAFDQFREAHPQAQLQRLHFISFEKFPLTRADLALAHQHWPELAPWAEQLQAQWPMPLPGCHRLLLDEGRVTLDLWFGDINELTSQLDDSLNQKVDAWFLDGFAPAKNPDMWTQNLFNAMARLARPGGTLATFTSAGFVRRGLQDAGFTMQKRKGFGRKREMLCGVMEQTLPLPCSAPWFNRTGSSKREAAIIGGGIASALLSLALLRRGWQVTLYCADEAPALGASGNRQGALYPLLSKHDEALNRFFSNAFTFARRFYDQLPVKFDHDWCGVTQLGWDEKSQHKIAQMLSMDLPAELAVAVEANAVEQITGVATNCSGITYPQGGWLCPAELTRNVLELAQQQGLQIYYQYQLQNLSRKDDCWLLNFAGDQQATHSVVVLANGHQISRFSQTSTLPVYSVAGQVSHIPTTPELAELKQVLCYDGYLTPQNPANQHHCIGASYHRGSEDTAYSEDDQQQNRQRLIDCFPQAQWAKEVDVSDKEARCGVRCATRDHLPMVGNVPDYEATLVEYASLAEQKDEAVSAPVFDDLFMFAALGSRGLCSAPLCAEILAAQMSDEPIPMDASTLAALNPNRLWVRKLLKGKAVKAG
B2: C-MnmC (Escherichia coli K-12) (protein)
chain: PCSAPWFNRTGSSKREAAIIGGGIASALLSLALLRRGWQVTLYCADEAPALGASGNRQGALYPLLSKHDEALNRFFSNAFTFARRFYDQLPVKFDHDWCGVTQLGWDEKSQHKIAQMLSMDLPAELAVAVEANAVEQITGVATNCSGITYPQGGWLCPAELTRNVLELAQQQGLQIYYQYQLQNLSRKDDCWLLNFAGDQQATHSVVVLANGHQISRFSQTSTLPVYSVAGQVSHIPTTPELAELKQVLCYDGYLTPQNPANQHHCIGASYHRGSEDTAYSEDDQQQNRQRLIDCFPQAQWAKEVDVSDKEARCGVRCATRDHLPMVGNVPDYEATLVEYASLAEQKDEAVSAPVFDDLFMFAALGSRGLCSAPLCAEILAAQMSDEPIPMDASTLAALNPNRLWVRKLLKGKAVKAG

Substrate: CC(NCCCC[C@H](N)C(=O)O)C(=O)O
Experiment: purified protein
Settings: 50 mM Tris pH 8.0, 5 μM FAD, 25 μM enzyme, 37 °C, CEL 1-13 mM

Protein | Km [mM] | kcat [s⁻¹] | kcat/Km [M⁻¹ s⁻¹]
B1 | 5.2 ± 1.3 | 0.000667 ± 6.67e-05 | 0.133 ± 0.0167
B2 | 4.3 ± 0.6 | 0.003 ± 0.00015 | 0.7 ± 0.1
